From article PMC5109294, “NANOG reprograms prostate cancer cells to castration resistance via dynamically repressing and engaging the AR/FOXA1 signaling axis” come the findings set out here.

This series concerns the target T1, FOXA1 (Homo sapiens, UniProt P55317 1-472).
T1 sequence: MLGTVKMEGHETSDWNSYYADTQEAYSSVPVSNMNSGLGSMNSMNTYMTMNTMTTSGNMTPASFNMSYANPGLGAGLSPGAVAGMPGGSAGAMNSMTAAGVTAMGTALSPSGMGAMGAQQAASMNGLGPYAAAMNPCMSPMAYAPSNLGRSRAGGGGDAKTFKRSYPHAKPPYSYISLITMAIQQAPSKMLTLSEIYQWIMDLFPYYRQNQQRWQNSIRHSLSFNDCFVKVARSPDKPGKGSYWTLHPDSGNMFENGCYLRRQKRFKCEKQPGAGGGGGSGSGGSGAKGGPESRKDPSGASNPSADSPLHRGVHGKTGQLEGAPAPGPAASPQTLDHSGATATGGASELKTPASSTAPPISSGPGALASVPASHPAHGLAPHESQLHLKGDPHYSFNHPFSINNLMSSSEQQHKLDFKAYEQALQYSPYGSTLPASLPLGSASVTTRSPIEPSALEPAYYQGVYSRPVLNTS
Kind of series: EMSA; 100 ng protein; competed by 300x unlabeled probe; weaker than NP8 at 1:1; LightShift Chemiluminescent EMSA kit; probe annealed in 20 mM Tris-HCl pH 7.5, 150 mM NaCl; 4-20% native gel, 0.5X TBE; binding buffer and temperature not stated. As to conditions: protein: recombinant; tags: GST (pGEX-6p-1); label: biotin (both strands); blunt; some single-stranded primer remains after annealing. On the technique in general: In EMSA bound probe runs differently from free probe, usually more slowly.

B1: FOXA1 motif probe, UBE2C gene promoter (dsDNA)
DNA 1: CTTAGTGTTTATTTCAAGCT
DNA 2: AGCTTGAAATAAACACTAAG
For the molecule B1, the binding result is “binds”.
